Assay [1] has as its target T1, human ROR1 expressed on the cell surface (human, UniProt Q01973 30-937).
T1 construct: whole, on cells; also called cell surface-expressed ROR1 antigen; ROR1 on JeKo-1, Mino, CHO-human ROR1, MC38-human ROR1 and other cancer cell lines
Briefly: flow cytometry on Kasumi-2 cells (ALL), C2E3 IgG, FITC anti-human Fc detection. The procedure:
(§1) FACS analysis (FACSCalibur, BD Biosciences) was used to analyze the binding of the anti-ROR1 antibody of the present invention to ROR1 in the above cell lines.
(§2) Specifically, the respective cell lines were dissociated and washed in PBS, then the numbers of cells were counted and adjusted to 2×10⁵ cells/200 PBS. Then, they were treated with 10 /mL of the antibody of clone name C2E3 of the ROR1 monoclonal antibodies prepared in Embodiment 3, and reacted for 1 hour at 4° C. After the reaction, the cells were washed in PBS, then FITC-marked constant region (Fc) specific antibody (Goat anti-human IgG FITC conjugate, Fc specific, Sigma, F9512, concentration 20 mg/ml) was suspended in 2 /1×10⁵ cells/200 PBS and reacted for 1 hour at 4° C. After reacting, the cells were washed with PBS and analyzed with the FACSCalibur equipment. The negative control was only treated with FITC-marked constant region (Fc) specific antibody. To compare the degree of ROR1 expression among the respective cancer cell lines, the quotient of dividing the shifted readings for the experimental group treated with the ROR1 monoclonal antibody (C2E3) of the present invention by the shifted readings for the control group (MFI Ratio: MFI of anti-ROR1/MFI or 2nd Ab) is indicated.

Assay [2] addresses T2, recombinant human ROR1-His (Sino Biological, 13968-H08H) (human, UniProt Q01973 30-406).
T2 construct: extracellular domain; Bought protein; also called ROR1-HIS protein; not shown: His tag
Briefly: BLI (Octet), ROR1-His on Anti-Penta-His or AR2G biosensor, IgG 30 to 0.021 nM, 1:1 fit.

The target of assay [3] is T1, human ROR1 expressed on the cell surface. Kind of assay: flow cytometry on BT20 cells (breast cancer), C2E3 IgG, FITC anti-human Fc detection. The procedure:
as §1, §2

The target is the same in assay [4]. Kind of assay: flow cytometry on HCT116 cells (colon cancer), C2E3 IgG, FITC anti-human Fc detection. On the procedure:
as §1, §2
(A flow cytometer gives signals particle by particle.)

The target is the same in assay [5]. Kind of assay: flow cytometry on HCC1937 cells (breast cancer), C2E3 IgG, FITC anti-human Fc detection. On the procedure: as §1, §2
Assay [6] has the same target. Briefly: flow cytometry on Jurkat cells (T cell leukemia), C2E3 IgG, FITC anti-human Fc detection. On the procedure: as §1, §2
Assay [7] has the same target. Briefly: flow cytometry on NCI-N87 cells (gastric cancer), C2E3 IgG, FITC anti-human Fc detection. On the procedure:
as §1, §2

Assay [8] shares this target. Briefly: flow cytometry on MDA-MB-468 cells (breast cancer), C2E3 IgG, FITC anti-human Fc detection. The procedure: as §1, §2
The target is the same in assay [9]. Briefly: flow cytometry on MCF7 cells (breast cancer; the text calls MCF7 a cell line which does not express ROR1), C2E3 IgG, FITC anti-human Fc detection. On the procedure: as §1, §2

The source of these data is patent US20210069342A1 (LEGOCHEM BIOSCIENCES, published 2021).

T1 sequence (Q01973 30-937): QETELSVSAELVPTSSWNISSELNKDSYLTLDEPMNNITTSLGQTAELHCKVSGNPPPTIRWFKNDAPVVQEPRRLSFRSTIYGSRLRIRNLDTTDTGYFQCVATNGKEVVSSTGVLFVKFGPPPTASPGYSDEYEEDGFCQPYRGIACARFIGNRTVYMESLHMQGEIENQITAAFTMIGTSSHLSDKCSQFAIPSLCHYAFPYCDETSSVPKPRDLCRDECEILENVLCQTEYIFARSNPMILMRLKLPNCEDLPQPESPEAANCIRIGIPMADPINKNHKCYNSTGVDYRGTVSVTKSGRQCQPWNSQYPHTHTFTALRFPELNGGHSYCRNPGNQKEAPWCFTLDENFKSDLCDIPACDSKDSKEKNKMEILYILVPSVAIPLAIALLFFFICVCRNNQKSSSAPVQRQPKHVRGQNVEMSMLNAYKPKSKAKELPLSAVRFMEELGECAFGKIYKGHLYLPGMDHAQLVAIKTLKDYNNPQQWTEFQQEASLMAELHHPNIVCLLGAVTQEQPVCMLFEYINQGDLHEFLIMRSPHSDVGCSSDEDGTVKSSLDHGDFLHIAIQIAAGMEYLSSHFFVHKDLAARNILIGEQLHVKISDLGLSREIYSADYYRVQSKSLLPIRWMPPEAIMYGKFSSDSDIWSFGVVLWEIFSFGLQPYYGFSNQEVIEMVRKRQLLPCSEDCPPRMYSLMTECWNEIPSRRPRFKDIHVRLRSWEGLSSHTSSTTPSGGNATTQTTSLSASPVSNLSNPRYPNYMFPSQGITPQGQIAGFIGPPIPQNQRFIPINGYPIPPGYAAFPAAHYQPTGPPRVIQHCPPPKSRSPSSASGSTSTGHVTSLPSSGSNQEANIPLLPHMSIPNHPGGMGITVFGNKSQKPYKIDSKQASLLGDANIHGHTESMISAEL
T2 sequence (Q01973 30-406): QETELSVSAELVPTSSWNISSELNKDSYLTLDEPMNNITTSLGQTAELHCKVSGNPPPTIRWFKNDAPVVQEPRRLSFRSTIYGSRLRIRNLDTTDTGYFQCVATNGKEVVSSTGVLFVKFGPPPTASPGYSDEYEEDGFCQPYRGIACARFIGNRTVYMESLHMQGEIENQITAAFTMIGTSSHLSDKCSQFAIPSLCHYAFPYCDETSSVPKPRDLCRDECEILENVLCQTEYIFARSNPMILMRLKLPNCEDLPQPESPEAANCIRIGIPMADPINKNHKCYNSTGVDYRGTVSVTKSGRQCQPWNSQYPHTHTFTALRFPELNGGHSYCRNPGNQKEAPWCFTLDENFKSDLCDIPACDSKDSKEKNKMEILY

B1: anti-ROR1 IgG antibody C2E3 (antibody, V domains shown)
VH: EVQLLESGGGLVQPGGSLRLSCAASGFTFSNYAMSWVRQAPGKGLEWVSSISHNSGSTYYADSVKGRFTISRDNSKNTLYLQMNSLRAEDTAVYYCAKFISARKSLGRSYSNGMDVWGQGTLVTVSS
VL: QSVLTQPPSASGTPGQRVTISCTGSSSNIGSNDVTWYQQLPGTAPKLLIYADSKRPSGVPDRFSGSKSGTSASLAISGLRSEDEADYYCGTWDYSLSGYVFGGGTKLTVLG
notes: Full IgG form (human IgG1 constant region, lambda light chain), expressed in CHO-S cells
As to B1, the “Mean Fold Ratio (MFI of anti-ROR1 / MFI of 2nd Ab)” value in assay [1] was found to be 11.5; in assay [3] it was 3; in assay [4] it was 18; in [5], 2.7; in assay [6], 1.7; in assay [7], 11.8. Also, the “Mean Fold Ratio (MFI of anti-ROR1 / MFI of 2nd Ab)” value in assay [8] is 6.4; in assay [9], 1.1. The kon in assay [2] is 5.46e+06 M⁻¹ s⁻¹.

Broadly, the kon is a measure of how fast the partners come together.
